Patent US20250368744A1 (CONCEPT TO MEDICINE BIOTECH, published 2025)
Numbering of substitutions follows the chain as printed. Read-outs that look alike come from different tables or passages of the source. Values belong to the binder of their own block, whether it stands above or below them.

Experiments:
[1] = molecular target: T1, human C-C motif chemokine receptor 8 (CCR8) (human, UniProt P51685 1-355); assay: cell-based or functional assay
[2] = molecular target: T1, human C-C motif chemokine receptor 8 …; assay: cell-based or functional assay; remark: listed apart in the source
[3] = molecular target: T1, human C-C motif chemokine receptor 8 …; assay: cell-based or functional assay; remark: listed apart in the source
[4] = molecular target: T1, human C-C motif chemokine receptor 8 …; assay: cell-based or functional assay; remark: listed apart in the source
[5] = molecular target: T1, human C-C motif chemokine receptor 8 …; assay: FACS (MFI-PE) on HEK293 hCCR8 cells
[6] = molecular target: T1, human C-C motif chemokine receptor 8 …; assay: FACS (MFI PE) on HEK293 hCCR8 cells
human CCR4 = molecular target: T2, human CCR4 (human, UniProt P51679 1-360); assay: FACS, CHO-K1 hCCR4 cells
T2 construct: whole, on cells; also called hCCR4
T2 sequence (looked up): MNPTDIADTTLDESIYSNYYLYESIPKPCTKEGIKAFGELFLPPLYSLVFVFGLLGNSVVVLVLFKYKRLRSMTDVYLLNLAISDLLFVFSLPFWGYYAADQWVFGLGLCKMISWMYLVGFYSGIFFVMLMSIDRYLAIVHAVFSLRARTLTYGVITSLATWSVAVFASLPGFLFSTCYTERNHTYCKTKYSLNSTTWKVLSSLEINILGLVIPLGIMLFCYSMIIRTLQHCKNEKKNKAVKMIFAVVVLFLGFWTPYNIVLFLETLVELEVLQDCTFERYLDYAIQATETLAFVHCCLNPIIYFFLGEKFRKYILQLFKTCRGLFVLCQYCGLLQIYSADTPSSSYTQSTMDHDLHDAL
Description: (§1) Briefly, HEK293 hCCR8 cell line, CHO-K1 cyno CCR8 cell line or CHO-K1 hCCR4 cell line was first incubated with 5-fold serially diluted and 8 doses with the above 10 chimeric Abs and hlgG1 control starting from 100 nM at 4° C. for 30 mins. After washing by FACS buffer, PE Goat anti-Human IgG Fc Secondary Antibody (eBioscience™, Invitrogen) was added to each well and incubated at 4° C. for 30 mins. Samples were washed twice with FACS buffer. The mean florescence intensity (MFI) of PE was evaluated by MACSQuant Analyzer 16.

[7] = molecular target: T1, human C-C motif chemokine receptor 8 …; assay: cell-based or functional assay; remark: listed apart in the source
[8] = molecular target: T1, human C-C motif chemokine receptor 8 …; assay: cell-based or functional assay; remark: listed apart in the source
[9] = molecular target: T1, human C-C motif chemokine receptor 8 …; assay: FACS (MFI-PE) on HEK293 hCCR8 cells; remark: listed apart in the source
Description: as §1

cyno CCR8 [10] = molecular target: T3, cyno CCR8 (cynomolgus, UniProt G7NYJ2 1-355); assay: FACS (MFI-PE) on CHO-K1 cyno CCR8 cells; fitted value, the curve stays at the baseline
T3 construct: whole, on cells; also called cynomolgus CCR8 protein
T3 sequence (G7NYJ2 entry or part of it): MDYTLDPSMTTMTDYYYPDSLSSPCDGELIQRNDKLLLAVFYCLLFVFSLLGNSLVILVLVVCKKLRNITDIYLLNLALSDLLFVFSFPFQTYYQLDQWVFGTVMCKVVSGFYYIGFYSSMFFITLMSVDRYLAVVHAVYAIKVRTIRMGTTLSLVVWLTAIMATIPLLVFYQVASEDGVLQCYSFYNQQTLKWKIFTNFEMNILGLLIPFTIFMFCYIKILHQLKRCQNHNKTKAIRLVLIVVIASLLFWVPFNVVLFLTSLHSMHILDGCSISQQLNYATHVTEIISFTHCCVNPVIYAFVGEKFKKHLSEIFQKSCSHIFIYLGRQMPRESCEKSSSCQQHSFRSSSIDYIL
Description: as §1

[11] = molecular target: T1, human C-C motif chemokine receptor 8 …; assay: cell-based or functional assay; remark: listed apart in the source
[12] = molecular target: T1, human C-C motif chemokine receptor 8 …; assay: FACS (MFI-PE) on CHO-K1 hCCR8 cells
cyno CCR8 [13] = molecular target: T3, cyno CCR8; assay: FACS (MFI-PE) on CHO-K1 cyno CCR8 cells; fitted value far outside the range tested (up to 100 nM)
cyno CCR8 [14] = molecular target: T3, cyno CCR8; assay: FACS (MFI-PE) on CHO-K1 cyno CCR8 cells; fitted value, the curve hardly leaves the baseline

T1 sequence (P51685 whole entry): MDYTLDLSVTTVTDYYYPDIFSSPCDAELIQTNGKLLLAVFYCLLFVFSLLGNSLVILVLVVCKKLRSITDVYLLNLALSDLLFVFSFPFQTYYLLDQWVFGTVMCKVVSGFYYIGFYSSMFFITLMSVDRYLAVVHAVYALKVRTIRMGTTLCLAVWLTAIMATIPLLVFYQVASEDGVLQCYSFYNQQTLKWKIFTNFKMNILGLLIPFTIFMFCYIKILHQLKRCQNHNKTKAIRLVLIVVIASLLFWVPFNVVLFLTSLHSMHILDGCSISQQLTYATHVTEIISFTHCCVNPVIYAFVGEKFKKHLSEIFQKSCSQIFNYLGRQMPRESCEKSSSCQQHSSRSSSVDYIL

IC50 (read off the curve), hCCL1-induced beta-arrestin recruitment (RLU), CHO-K1 hCCR8 cells [1]: ~2 nM
IC50, hCCL1-induced Ca2+ flux (stimulation %), Chem-1 hCCR8 cells [2]: 0.36 nM
IC50, hCCL1-induced beta-arrestin recruitment (% stimulation), CHO-K1 hCCR8 cells [3]: 1.58 nM
IC50, hCCL1-induced Ca2+ flux (% stimulation), Chem-1 hCCR8 cells [4]: 4.33 nM
EC50 [5]: 0.069 nM
EC50 [6]: 0.15 nM
B1: Hu200C9B9-7 NG-NA (antibody, V domains shown)
VH: EVQLVESGGGLVQPGGSLRLSCAASGFSFNTYVMNWVRQAPGKGLEWVARIRTKSNNYATFYVDSVKDRFTISRDDSKNSLYLQMNSLKTEDTAVYYCVSGTITRLGAGLDYWGQGTLVTVSS
VL: DIVMTQSPLSLPVTPGEPASISCRSSKSLLHSNANTYLYWYLQKPGQSPQLLIYRMSNLASGVPDRFSGSGSGTAFTLKISRVEAEDVGVYYCMQHLEYPFTFGGGTKLEIK
notes: humanized, PTM site removed

IC50, hCCL1-induced beta-arrestin recruitment (RLU), CHO-K1 hCCR8 cells [7]: 13.8 nM
IC50, hCCL1-induced Ca2+ flux (stimulation %), Chem-1 hCCR8 cells [lower graph] [8]: 5.77 nM
IC50, hCCL1-induced Ca2+ flux (stimulation %), Chem-1 hCCR8 cells [upper graph] [8]: 7.6 nM
EC50 [9]: 0.107 nM
EC50 (cyno CCR8 [10]): 29.9 nM
B2: 163H9D5 (antibody, V domains shown)
VH: EVQLVESGGGLVQPKGSLKLSCAASGFSFNTYAMNWVRQAPGKGLKWVARIRTKSNNYATHYADSVKDRFTLSRDDSESMLYLQMNNLKTEDTAMYYCVGGGYGSSASNAMAYWGQGTSVTVSS
VL: DIVMTQAAPSVPVTPGESVSISCRSSKSLLHSNGNTYLYWFLQRPGQSPQLLIFRMSNLASGVPDRFSGSGSGTAFTLRISRVEAEDVGVYYCMQHLEYPFTFGSGTKLEIK
notes: tested as chimeric mAb
binding result (human CCR4): no binding (tested: 100 nM (highest concentration tested))

IC50, hCCL1-induced beta-arrestin recruitment (RLU), CHO-K1 hCCR8 cells [11]: 0.154 nM
EC50 [12]: 0.399 nM
EC50 (cyno CCR8 [13]): > 100 nM
B3: 200C9B9-C1 (antibody, V domains shown)
VH: B1 VH with G15K, R19K, E46N, K78E, S80M, S87N, T90I, V95I, L118S
VL: B2 VL with N33Q, F54Y, S105G
notes: also called 200C9B9 VH with 200C9B9 VL NG-QG

EC50 [12]: 0.29 nM
EC50 (cyno CCR8 [14]): 68.1 nM
B4: 195H8D10-C1 (antibody, V domains shown)
VH: EVQLVGSGGGLVQPKGSLKLSCAASGFNFNTYVMNWVRQAPGKGLEWVARIRTKSNNYATYYADSVKDRFTISRDDSESKLYLQMNNLKTEDTAMYYCVSGTITRLGGGLDYWGQGTSVTVSS
VL: B2 VL with S28R, N33Q, F54Y, S105G
notes: also called 195H8D10 VH with 195H8D10 VL NG-QG
